B1: monomeric [3H]LOS·sCD14 complex (endotoxin·CD14) (natural protein, UniProt P08571 20-345, looked up)
chain: TTPEPCELDDEDFRCVCNFSEPQPDWSEAFQCVSAVEVEIHAGGLNLEPFLKRVDADADPRQYADTVKALRVRRLTVGAAQVPAQLLVGALRVLAYSRLKELTLEDLKITGTMPPLPLEATGLALSSLRLRNVSWATGRSWLAELQQWLKPGLKVLSIAQAHSPAFSCEQVRAFPALTSLDLSDNPGLGERGLMAALCPHKFPAIQNLALRNTGMETPTGVCAALAAAGVQPHSLDLSHNSLRATVNPSAPRCMWSSALNSLNLSFAGLEQVPKGLPAKLRVLDLSCNRLNRAPQPDELPEVDNLTLDGNPFLVPGTALPHEGSMN
B2: monomeric [3H]LOS·MD-2His6 complex (endotoxin·MD-2) (natural protein)
chain: QKQYWVCNSSDASISYTYCDKMQYPISINVNPCIELKRSKGLLHIFYIPRRDLKQLYFNLYITVNTMNLPKRKEVICRGSDDDYSFCRALKGETVNTTISFSFKGIKFSKGKYKCVVEAISGSPEEMLFCLEFVILHQPNSN

Legend:
Experiment in all cases: radioligand binding
[1] = target: MD-2Flag.His6/FlagTLR4ecd (wild type) complex (human, UniProt Q9Y6Y9 19-160; O00206 24-631)
Chain of MD-2Flag.His6/FlagTLR4ecd (wild type) complex (O00206 24-631, one chain of several): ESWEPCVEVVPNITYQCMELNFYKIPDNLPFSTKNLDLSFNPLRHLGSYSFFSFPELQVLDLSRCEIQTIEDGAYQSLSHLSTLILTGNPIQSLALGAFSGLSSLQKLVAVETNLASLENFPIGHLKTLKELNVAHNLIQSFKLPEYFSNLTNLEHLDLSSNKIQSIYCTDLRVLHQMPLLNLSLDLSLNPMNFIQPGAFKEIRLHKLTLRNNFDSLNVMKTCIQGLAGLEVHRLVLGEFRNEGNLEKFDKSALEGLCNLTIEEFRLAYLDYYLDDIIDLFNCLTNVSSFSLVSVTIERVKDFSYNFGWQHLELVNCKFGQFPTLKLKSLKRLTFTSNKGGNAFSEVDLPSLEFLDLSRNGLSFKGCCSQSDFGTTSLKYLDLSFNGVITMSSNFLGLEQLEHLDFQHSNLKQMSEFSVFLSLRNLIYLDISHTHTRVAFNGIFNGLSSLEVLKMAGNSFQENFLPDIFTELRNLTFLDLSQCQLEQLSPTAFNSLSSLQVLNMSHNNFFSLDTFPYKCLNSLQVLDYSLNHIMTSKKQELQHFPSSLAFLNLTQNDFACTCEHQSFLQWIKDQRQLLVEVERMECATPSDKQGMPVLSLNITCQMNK

[2] = target: MD-2Flag.His6/FlagTLR4ecd D299G.T399I complex (human, UniProt Q9Y6Y9 19-160; O00206 24-631, D299G | T399I)
Chain of MD-2Flag.His6/FlagTLR4ecd D299G.T399I complex (O00206 24-631 D299G/T399I, one chain of several): as the sequence (O00206 24-631, one chain of several) above, with D276G, T376I counted along it

[3] = target: FlagTLR4ecd, wild type (extracellular domain of human TLR4, residues 24-631) (human, UniProt O00206 24-631)
Chain of FlagTLR4ecd, wild type (extracellular domain of human TLR4, residues 24-631) (O00206 24-631): as the sequence (O00206 24-631, one chain of several) above

[4] = target: full-length D299G.T399I TLR4 expressed on HEK293T cells without MD-2 (human, UniProt O00206 24-839, D299G | T399I)
Chain of full-length D299G.T399I TLR4 expressed on HEK293T cells without MD-2 (O00206 24-839 D299G/T399I): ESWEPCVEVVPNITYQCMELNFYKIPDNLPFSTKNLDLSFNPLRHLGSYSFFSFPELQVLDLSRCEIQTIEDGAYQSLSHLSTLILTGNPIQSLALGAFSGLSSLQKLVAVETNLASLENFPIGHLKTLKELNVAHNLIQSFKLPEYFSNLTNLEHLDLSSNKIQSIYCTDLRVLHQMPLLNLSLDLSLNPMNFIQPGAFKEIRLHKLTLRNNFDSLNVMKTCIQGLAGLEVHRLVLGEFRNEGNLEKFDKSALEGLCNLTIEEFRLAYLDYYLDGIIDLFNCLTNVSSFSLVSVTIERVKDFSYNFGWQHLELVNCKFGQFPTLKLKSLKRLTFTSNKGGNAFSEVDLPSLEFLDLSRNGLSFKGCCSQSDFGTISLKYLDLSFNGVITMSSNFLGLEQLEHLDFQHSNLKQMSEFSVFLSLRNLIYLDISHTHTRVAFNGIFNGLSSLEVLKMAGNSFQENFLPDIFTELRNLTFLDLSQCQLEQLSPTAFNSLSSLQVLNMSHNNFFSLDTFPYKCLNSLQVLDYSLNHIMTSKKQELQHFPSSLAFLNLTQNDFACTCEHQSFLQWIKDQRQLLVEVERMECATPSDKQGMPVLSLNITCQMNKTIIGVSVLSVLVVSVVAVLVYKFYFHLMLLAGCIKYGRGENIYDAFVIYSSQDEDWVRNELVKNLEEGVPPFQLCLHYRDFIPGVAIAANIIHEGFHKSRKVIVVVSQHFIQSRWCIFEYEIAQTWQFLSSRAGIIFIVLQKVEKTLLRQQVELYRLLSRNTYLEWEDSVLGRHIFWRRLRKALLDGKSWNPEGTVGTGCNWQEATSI

| Binder | Kd [1] | Kd [2] | Kd [3] | fold reduction of cell binding against wt TLR4 [4] |
| --- | --- | --- | --- | --- |
| B1 | 196 pM | 186 pM |  |  |
| B2 |  |  | 221 ± 43 pM | ≥ 10 fold |
